Laboratory results: the supplement of paper PMC10567573

B1: ZER1 (parent)
chain: KEMARKVIEHCSNFKEENMDTSR

Variants of: B1
Test: protein stability index of a GFP-peptide fusion (GPS, HEK-293T) (PSI 1-6); higher = more stable
Conditions: c terminus: native
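Note: lentivirally expressed fusions sorted by FACS into six bins by GFP to DsRed ratio, PSI derived from sequencing read proportions per bin multiplied by bin number.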

Variant | protein stability index
KEMARKVIESCSNFKEENMDTSR | 3.57
KEMARKVIETCSNFKEENMDTSR | 3.98
KEMARKVIEVCSNFKEENMDTSR | 3.33
KEMARKVIEWCSNFKEENMDTSR | 2.15
KEMARKVIEYCSNFKEENMDTSR | 1.9
KEMARKVIEHASNFKEENMDTSR | 4.77
KEMARKVIEHDSNFKEENMDTSR | 4.79
KEMARKVIEHESNFKEENMDTSR | 4.45
KEMARKVIEHFSNFKEENMDTSR | 1.38
KEMARKVIEHGSNFKEENMDTSR | 4.63
KEMARKVIEHHSNFKEENMDTSR | 3.87
KEMARKVIEHISNFKEENMDTSR | 2.02
KEMARKVIEHKSNFKEENMDTSR | 4.94
KEMARKVIEHLSNFKEENMDTSR | 2.59
KEMARKVIEHMSNFKEENMDTSR | 2.58
KEMARKVIEHNSNFKEENMDTSR | 4.26
KEMARKVIEHPSNFKEENMDTSR | 4.83
KEMARKVIEHQSNFKEENMDTSR | 4.43
KEMARKVIEHRSNFKEENMDTSR | 4.48
KEMARKVIEHSSNFKEENMDTSR | 3.96
KEMARKVIEHTSNFKEENMDTSR | 4.62
KEMARKVIEHVSNFKEENMDTSR | 2.84
KEMARKVIEHWSNFKEENMDTSR | 2.19
KEMARKVIEHYSNFKEENMDTSR | 2.11
KEMARKVIEHCANFKEENMDTSR | 3.7

Variant | protein stability index
KEMARKVIEHCCNFKEENMDTSR | 2.98
KEMARKVIEHCDNFKEENMDTSR | 4.24
KEMARKVIEHCENFKEENMDTSR | 3.85
KEMARKVIEHCFNFKEENMDTSR | 2.77
KEMARKVIEHCGNFKEENMDTSR | 4.21
KEMARKVIEHCHNFKEENMDTSR | 3.66
KEMARKVIEHCINFKEENMDTSR | 2.56
KEMARKVIEHCKNFKEENMDTSR | 3.49
KEMARKVIEHCLNFKEENMDTSR | 2.45
KEMARKVIEHCMNFKEENMDTSR | 2.54
KEMARKVIEHCNNFKEENMDTSR | 3.95
KEMARKVIEHCPNFKEENMDTSR | 4.37
KEMARKVIEHCQNFKEENMDTSR | 3.55
KEMARKVIEHCRNFKEENMDTSR | 3.25
KEMARKVIEHCTNFKEENMDTSR | 3.59
KEMARKVIEHCVNFKEENMDTSR | 2.96
KEMARKVIEHCWNFKEENMDTSR | 2.63
KEMARKVIEHCYNFKEENMDTSR | 2.73
KEMARKVIEHCSAFKEENMDTSR | 3.28
KEMARKVIEHCSCFKEENMDTSR | 3.04
KEMARKVIEHCSDFKEENMDTSR | 3.61
KEMARKVIEHCSEFKEENMDTSR | 3.69
KEMARKVIEHCSFFKEENMDTSR | 2.49
KEMARKVIEHCSGFKEENMDTSR | 3.5
KEMARKVIEHCSHFKEENMDTSR | 3.53

Variant | protein stability index
KEMARKVIEHCSIFKEENMDTSR | 1.93
KEMARKVIEHCSKFKEENMDTSR | 3.85
KEMARKVIEHCSLFKEENMDTSR | 1.92
KEMARKVIEHCSMFKEENMDTSR | 2.88
KEMARKVIEHCSPFKEENMDTSR | 3.32
KEMARKVIEHCSQFKEENMDTSR | 3.07
KEMARKVIEHCSRFKEENMDTSR | 3.11
KEMARKVIEHCSSFKEENMDTSR | 3.33
KEMARKVIEHCSTFKEENMDTSR | 3.68
KEMARKVIEHCSVFKEENMDTSR | 3.05
KEMARKVIEHCSWFKEENMDTSR | 2.4
KEMARKVIEHCSYFKEENMDTSR | 3.15
KEMARKVIEHCSNAKEENMDTSR | 4.56
KEMARKVIEHCSNCKEENMDTSR | 3.91
KEMARKVIEHCSNDKEENMDTSR | 5.02
KEMARKVIEHCSNEKEENMDTSR | 4.78
KEMARKVIEHCSNGKEENMDTSR | 4.69
KEMARKVIEHCSNHKEENMDTSR | 4.8
KEMARKVIEHCSNIKEENMDTSR | 4.35
KEMARKVIEHCSNKKEENMDTSR | 4.92
KEMARKVIEHCSNLKEENMDTSR | 4.03
KEMARKVIEHCSNMKEENMDTSR | 4.4
KEMARKVIEHCSNNKEENMDTSR | 4.73
KEMARKVIEHCSNPKEENMDTSR | 4.26
KEMARKVIEHCSNQKEENMDTSR | 4.73

Variant | protein stability index
KEMARKVIEHCSNRKEENMDTSR | 4.55
KEMARKVIEHCSNSKEENMDTSR | 4.68
KEMARKVIEHCSNTKEENMDTSR | 4.46
KEMARKVIEHCSNVKEENMDTSR | 4.94
KEMARKVIEHCSNWKEENMDTSR | 3.33
KEMARKVIEHCSNYKEENMDTSR | 3.56
KEMARKVIEHCSNFAEENMDTSR | 3.31
KEMARKVIEHCSNFCEENMDTSR | 3.93
KEMARKVIEHCSNFDEENMDTSR | 4.24
KEMARKVIEHCSNFEEENMDTSR | 4.32
KEMARKVIEHCSNFFEENMDTSR | 3.17
KEMARKVIEHCSNFGEENMDTSR | 3.7
KEMARKVIEHCSNFHEENMDTSR | 3.52
KEMARKVIEHCSNFIEENMDTSR | 3.5
KEMARKVIEHCSNFLEENMDTSR | 3.13
KEMARKVIEHCSNFMEENMDTSR | 3.54
KEMARKVIEHCSNFNEENMDTSR | 3.64
KEMARKVIEHCSNFPEENMDTSR | 4.08
KEMARKVIEHCSNFQEENMDTSR | 3.57
KEMARKVIEHCSNFREENMDTSR | 2.8
KEMARKVIEHCSNFSEENMDTSR | 3.34
KEMARKVIEHCSNFTEENMDTSR | 4.15
